# Source: US20250171542A1 (ADEPT THERAPEUTICS, published 2025)
# What was measured:
# [1] = biological target: T1, human PD-L1 expressed on cell surface (human, UniProt Q9NZQ7 19-290); experiment: cell-based or functional assay
# [2] = biological target: T1, human PD-L1 expressed on cell surface; experiment: cell-based or functional assay; remark: listed apart in the source
# [3] = biological target: T2, cynomolgus PD-L1-His (Sino Biological, Cat. 90251-C08H) (cynomolgus, UniProt Q9NZQ7 19-238 (human entry)); experiment: ELISA, coated cyno PD-L1-His
# T2 construct: Bought protein; also called Cyno PD-L1; Cynomolgus PD-L1 ECD-His; not shown: His tag
# Experimental: (§1) Briefly, Maxisorp plates (Nunc) were coated with 100 ul/well of 0.5 μg/ml human PD-L1-His (Sino Biological, Cat #10084-H08H) or cynomolgus PD-L1-His (Sino Biological, Cat. 90251-C08H) protein diluted in 1×PBS (GIBCO) overnight at 4° C. Plates were washed three times with 300 μl/well washing buffer (1×PBST, diluted from 20×PBST (Thermo Scientific) with distilled water)) and then blocked with 300 μl/well of blocking buffer (1×PBST/I % BSA) for 2 hours at RT on shaker (100 rpm). Plates were washed and added with 100 μl/well of testing antibodies, which were serial diluted with assay buffer (PBST/1% BSA). The antibodies were incubated at room temperature for 2 hours on plate shaker at 100 rpm. Plates were washed. One hundred microliter of horseradish peroxidase (HRP) conjugated detection antibody was added into each well and incubated at room temperature for 1 hour on plate shaker at 100 rpm. Plates were washed and added with 100 μl/well TMB substrate for color development at room temperature in dark for up to 10 minutes. After addition of 50 μl/well of stop solution (1N H₂SO₄), plates were read at 450 nm on a plate reader (SpectraMax M5).
# (§2) Anti-HEL isotype control (Biolntron) was used as negative control.
# [4] = biological target: T3, human PD-L1-His (Sino Biological, Cat #10084-H08H) (human, UniProt Q9NZQ7 19-238); experiment: ELISA, coated human PD-L1-His
# T3 construct: Bought protein; also called human PD-L1 ECD-His; recombinant human PD-L1-His protein; not shown: His tag
# Experimental: as §1, §2
# [5] = biological target: T2, cynomolgus PD-L1-His (Sino Biological, …); experiment: BLI (Gator), cynomolgus PD-L1
# [6] = biological target: T3, human PD-L1-His (Sino Biological, Cat …); experiment: BLI (Gator), antibody on HFC probe, human PD-L1-His in solution
# Experimental: The affinity of the binding of the exemplary anti-PD-L1 antibodies of the present disclosure was determined. Assay was performed according to the protocol recommended by Gator or Gator Plus (Gator Bio Inc.). Briefly, human PD-L1-His (Sino Biological, Cat #10084-H08H) was serially diluted 4-fold, starting at 4 μg/ml. After three times of regeneration in generation buffer (Gator Bio, Cat #120012) and neutralization of HFC probe (Gator Bio, Cat #160003), 1 μg/ml of antibody to be tested in Q buffer (Gator Bio, Cat #120010) was immobilized onto HFC probe. After a baseline step, probe immobilized with antibody was dipped into antigen solutions. The association and dissociation of antigen from antibody was measured on BLI machine Gator. Affinity was calculated using Gator Bio analysis software.
# Table 22 below summarizes the binding affinity to human PD-L1 using Gator.
# [7] = biological target: T4, human PD-L1-mFc fusion protein (Sino Biological, Cat #10084-H05H) (human, UniProt Q9NZQ7 19-239); experiment: competition ELISA, coated human PD-L1-mFc, competitor human PD-1-His-hFc-Biotin
# T4 construct: Bought protein; also called human PD-L1 mouse Fc fusion protein; not shown: mouse Fc
# Experimental: Briefly, microplates were precoated with […] of human PD-L1-mFc fusion protein (Sino Biological, Cat #10084-H05H) diluted in 1×PBS (GIBCO) and incubated overnight at 4° C.; Plates were washed four times with 300 μl/well washing buffer (1×PBST, diluted from 20×PBST (Thermo Scientific) with distilled water)) and then blocked with 300 μl/well of blocking buffer (1×PBST/3% BSA) for 2 hours at RT on shaker (100 rpm). […] Plates were washed and added with 100 μl/well TMB substrate for color development at room temperature in dark for up to 10 minutes. After addition of 50 μl/well of stop solution (1N H₂SO₄), plates were read at 450 nm on a plate reader (SpectraMax M5).
# [8] = biological target: T3, human PD-L1-His (Sino Biological, Cat …); experiment: competition ELISA (epitope binning): coated human PD-L1-His, antibody pre-incubated, then biotinylated Avelumab (competitor), detection with HRP-avidin
# T1 sequence (Q9NZQ7 19-290 limits assumed): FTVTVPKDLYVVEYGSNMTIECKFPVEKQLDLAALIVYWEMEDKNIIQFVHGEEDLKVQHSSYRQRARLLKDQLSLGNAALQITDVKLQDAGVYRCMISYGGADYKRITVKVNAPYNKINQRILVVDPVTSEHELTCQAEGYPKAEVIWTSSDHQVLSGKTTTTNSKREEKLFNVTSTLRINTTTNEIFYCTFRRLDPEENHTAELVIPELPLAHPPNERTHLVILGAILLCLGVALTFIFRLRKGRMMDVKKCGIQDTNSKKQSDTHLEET
# T2 sequence (Q9NZQ7 other isoform, or with tags, fused parts or gaps C08H C08H limits assumed): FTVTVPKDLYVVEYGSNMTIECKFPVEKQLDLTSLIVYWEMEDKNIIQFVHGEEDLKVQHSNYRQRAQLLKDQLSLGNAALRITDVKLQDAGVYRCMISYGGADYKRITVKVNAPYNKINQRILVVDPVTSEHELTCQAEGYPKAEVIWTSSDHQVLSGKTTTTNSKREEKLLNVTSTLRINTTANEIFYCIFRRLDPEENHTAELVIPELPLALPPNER
# T4 sequence (Q9NZQ7 19-239 limits assumed): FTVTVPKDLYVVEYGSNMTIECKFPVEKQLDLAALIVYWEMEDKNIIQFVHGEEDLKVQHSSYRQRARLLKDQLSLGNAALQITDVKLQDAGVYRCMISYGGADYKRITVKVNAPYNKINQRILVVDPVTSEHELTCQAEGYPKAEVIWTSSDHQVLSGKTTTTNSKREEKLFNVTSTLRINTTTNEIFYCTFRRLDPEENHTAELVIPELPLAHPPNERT
# T3 sequence (Q9NZQ7 19-238): as the sequence (Q9NZQ7 other isoform, or with tags, fused parts or gaps C08H C08H limits assumed) above, with T33A, S34A, N62S, Q68R, R82Q, L173F, A185T, I192T, L215H counted along it
"IC50 (nM), Promega PD-1/PD-L1 blockade reporter assay [1]","IC50 (nM), Promega PD-1/PD-L1 blockade reporter assay, another assay [2]",EC50 [3],EC50 [4],Kd [5],koff [5],kon [5],Kd [6],koff [6],kon [6],IC50 [7],IC50 (read off the curve) [8],Binder
0.24 nM,0.33 nM,0.0177 nM,0.0159 nM,0.33 nM,0.000132 s⁻¹,403000 M⁻¹ s⁻¹,0.09 nM,7.6e-05 s⁻¹,810000 M⁻¹ s⁻¹,1.5 nM,,"28B3 (antibody, human IgG1, V domains shown) VH: QSVEESGGRLVTPGTPLTLSCTASGFSLSSYYMIWVRQAPGKGLEYIGYVYTGSGNTWYASWAKGRFAISKASTTVDLMITSPTTEDTATYFCASGADGVYDWGWDIWGPGTLVTVSL VL: DIVMTQTPASVEAAVGDTVTIKCQASQSIYSLLAWYQQKPGQRPKLLIAGASNLESGVPSRFSGSGSGTEYTLTISALECADAATYYCQNNYDSGRIYGLAFGGGTEVVVK"
0.36 nM,,0.0076 nM,0.0172 nM,0.25 nM,8.7e-05 s⁻¹,349000 M⁻¹ s⁻¹,0.58 nM,0.000399 s⁻¹,686000 M⁻¹ s⁻¹,2.1 nM,~0.1 µg/mL,"56H3 (antibody, human IgG1, V domains shown) VH: QEQLVESGGGLVQPEGSLTLTCTASEFSFSNNYYMSWVRQAPGKGLEWLGSIGIGSGITDYASWAKGRFTISKASSTTVTLQMTTLTAADTAIYFCARWTSGGGGFGLWGPGTLVTVSS VL: QVLTQTSSPVSAAVGGTVTINCQSSQTIYSDYLFWYQQKPGQPPKLLIYQTSTLASGVPSRFSGSGSGTQFTLTISGVQCDDAATYYCQGYYSGYIWTFGGGTEVVVN"

# The remaining lines, values behind:
Binder,"IC50 (nM), Promega PD-1/PD-L1 blockade reporter assay [1]","IC50 (nM), Promega PD-1/PD-L1 blockade reporter assay, another assay [2]",EC50 [3],EC50 [4],Kd [5],koff [5],kon [5],Kd [6],koff [6],kon [6],IC50 [7],IC50 (read off the curve) [8]
"27A2 (antibody, human IgG1, V domains shown) VH: QEQLEESGGGLVQPEGSLTLTCTASGFSFSSNHYMSWVRQAPGKGLEWIGSIGVGSGITDYASWAKGRFTISKASSTTLTLQMTTLTAADTAIYFCARWTSGGGGFGLWGPGTLVTVSS VL: QVLTQTSSPVSAAVGGTVTINCQSSQTIYSDYLFWYQQTPGQPPKLLIYQTSTLASGVPSRFKGSGSGTEFTLTISEIQCDDAATYYCQGYYSGYIWTFGGGTEVVVR",0.23 nM,0.35 nM,0.0113 nM,0.0146 nM,0.03 nM,1.3e-05 s⁻¹,390000 M⁻¹ s⁻¹,0.06 nM,3.6e-05 s⁻¹,643000 M⁻¹ s⁻¹,1.9 nM,
"74A9 (antibody, human IgG1, V domains shown) VH: QSVEESGGRLVTPGTPLTLTCAVSGFSLSTYALGWVRQAPGKGLEWIGSISIGGATYYASWAKGRFTISKTSTTVDLKIASPTTEDTATYFCARNVDSIYLDAFHTWGPGTLVTVSL VL: DIVMTQTPASVEAAVGGTVTIKCQASQNIYNNLAWYQQKPGQPPKLLIYRASTLASGVPSRFKGSGSGTEYTLTISDLECDDAATYYCQTYYLTTTTNAFGGGTEVVVK",0.29 nM,0.46 nM,0.0198 nM,0.0229 nM,3.09 nM,0.000915 s⁻¹,296000 M⁻¹ s⁻¹,0.36 nM,0.000234 s⁻¹,643000 M⁻¹ s⁻¹,2.3 nM,
"33E8 (antibody, human IgG1, V domains shown) VH: QSLEESGGDLVKPGASLTLTCTASGFYFSSGYDMSWVRQAPGKGLEWIASIFTTSGSTWYANWAKGRFTISKTSSTTVTLQMTSLTDADTATYFCTKDGVGSFYMNLWGPGTLVTVSS VL: LVMTQTPASVEVAVGGTVTIKCQASQTIGSNLAWYQQRPGQPPKLLIYKAFTLASGVSSRFKGSGSGTQFTLTISGVECADAATYYCQQGATRINIDNAFGGGTEVVVK",,0.38 nM,0.0414 nM,0.0399 nM,0.93 nM,0.000202 s⁻¹,218000 M⁻¹ s⁻¹,1.16 nM,0.000418 s⁻¹,361000 M⁻¹ s⁻¹,3.1 nM,
